Data reported in US12655398B2, “Multipartite luciferase” (Promega Corporation, priority 2018, dated 2026).

Key:
p65 = experiment: Nuclear translocation assay (p65-HiBiT HeLa cells, LgBiT*-nuclear sensor); format: cell-based; settings: for Time to reach maximum accumulation of p65 in the nucleus upon stimulation: real time measurement
Source text: A nuclear translocation assay was developed using measuring p65 movement from cytosol to the nucleus under TNFa stimulus. The nuclear translocation assay was set up similar to the membrane translocation assay. […] The assay allows measurement of protein translocation in real time.

[1] = system: SmTrip10 pep86 and SmTrip9 pep245; experiment: LgTrip 2098 activation by separate β9 and β10-like peptides; format: biochemical; settings: 10× concentrated lysate, peptides at 500 nM
Procedure: The luminescence of LgTrip 2098 (SEQ ID NO: 31) was monitored over time in the presence of separate peptides corresponding to the β10 and β9 portions of the full-length luciferase (SmTrip10 pep86 (SEQ ID NO: 25) and SmTrip9 pep245) (SEQ ID NO: 23) (FIG. 2). Similar experimental protocols were used as in Example 1; however, a 10× concentrated lysate was used, Peptides SmTrip10 pep86 and SmTrip9 pep245 were used at 500 nM, and 0.001% Prionex added to reactions. […] Controls with no peptides added or only one of the peptides added produced near the background of the plate reader.

[2] = Effect of urea on activity; format: physicochemical
Procedure: To test activity in the presence of urea, each enzyme was diluted to 1 uM in TBS+0.01% BSA+0.01% Tergitol and further diluted to 2 nM in TBS+0.01% BSA+0.01% Tergitol. […] A two-fold titration series was prepared for each, starting with 10M urea in 25 mM Tris pH 7.5+0.01% Tergitol. 10 uM furimazine was added to each sample of the titration series, and 5 ul of each enzyme or enzyme+pep263 (SEQ ID NO: 35) were combined with 45 ul of each substrate additive mixture. Plates were incubated for 3 minutes and then read on GMM+.
To test the effect of prolonged exposure to urea, each enzyme was diluted to 1 uM, and a two-fold titration series was prepared starting with 10M urea in 25 mM Tris pH 7.5+0.01% Tergitol. 2 ul of each enzyme was added to 198 ul of the urea titration (10 nM final of each enzyme). The “no” additive control was TBS+0.01% BSA+0.01% Tergitol. Samples were incubated for 26 hours. After incubation, samples were diluted 1:10,000 into TBS+0.01% BSA+0.01% Tergitol (10 ul in 990 ul two times). […] 50 ul of each sample was combined with 50 ul of NanoGlo® buffer+50 uM Furimazine. Plates were incubated for 3 minutes and then read on GMM+.

SmTrip10 pep86 / pep263 = experiment: Luminescence of LgBiT and LgTrip 2098 E. coli lysates with complementary peptide; format: biochemical; settings: E. coli lysate, 25 nM peptide
Procedure: (275 rpm) in a volume of 50 mL. From these cultures, 100× dilutions were made into the same media and the cultures grown at 37 C (275 rpm) for 3 h and then cooled to 25° C. before adding rhamnose (inducing agent for protein overexpression) to a final concentration of 0.2%. Cultures were then grown (induced) for 22 h at 25° C. (275 rpm) at which time cultures were harvested, and the resulting pellets stored at −20° C. until processing. To lyse cells, pellets were removed from −20° C., resuspended in 50 mL of PBS pH 7.2, and taken through 3 sequential freeze thaw cycles (−70° C. to 22° C.), centrifuged to produce soluble fractions, and then kept cold (on ice) until assaying. Lysates and peptide(s) (25 nm final concentration) were incubated together for 10 minutes at 25° C. prior to the addition of NanoGlo® reagent. After addition of reagent, plates were incubated for another 5 min at 35° C. and read over time to measure luminescence (RLU) using a Tecan Infinite F500 plate reader.

Effect of pH on activity = format: physicochemical; settings: pH titration series of universal buffer
Procedure: A universal buffer was prepared containing 25 mM of each: NaCitrate, MES, PIPES, HEPES, TAPS, and Thiourea in 0.5% Tergitol. The buffer was divided into 8 aliquots of 20 ml, and NaOH or HCl was added to create a pH titration series.
To test effect of pH on activity, each enzyme was diluted to 1 uM and then diluted to 0.4 nM in 3 ml of TBS+0.01% BSA+0.01% Tergitol. […] Assay reagent for each pH buffer tested (Table 5) (20 ul of furimazine in 980 of buffer). 10 ul of each enzyme/peptide dilution was combined with 50 ul of assay reagent. Plates were incubated for 3 minutes and read on GMM+.
To test the effect of prolonged exposure varying pH, each enzyme was diluted to 1 uM in TBS+0.01% BSA+0.01% Tergitol, which was then diluted to 20 nM in each buffer. T=0 samples were mixed and then diluted 1:10 into 200 mM HEPES pH 7.5+0.01% BSA+0.01% Tergitol and stored at 4° C. T=8 samples were mixed and then diluted 1:10 into 200 mM HEPES pH 7.5+0.01% BSA+0.01% Tergitol store at 4° C. T=24 samples were mixed and then diluted 1:10 into 200 mM HEPES pH 7.5+0.01% BSA+0.01% Tergitol store at 4° C. […] 40 ul of each sample was diluted with 40 ul of NanoGlo® buffer+40 uM furimazine, incubated for 3 minutes, and then read on GMM+.

TNFα
EC50, titration of TNFα (p65; p65-HiBiT cell line transfected with LgBiT*-nuclear sensor): 0.7 ng/mL | Fold-response, titration of TNFα (p65; p65-HiBiT cells, LgBiT*-nuclear sensor): 4 fold | Time to reach maximum accumulation of p65 in the nucleus upon stimulation (p65): 30 min | Time to reach maximum accumulation of p65 in the nucleus upon stimulation (p65; listed as TNFa): approximately 30 min

B1: LgTrip 2098: β1-8-like polypeptide, SEQ ID NO: 17; SEQ ID NO: 31 with His tag (protein)
chain: MVFTLEDFVGDWEQTAAYNLDQVLEQGGVSSLLQNLAVSVTPIQRIVRSGENALKIDIHVIIPYEGLSADQMAQIEEVFKVVYPVDDHHFKVILPYGTLVIDGVTPNMLNYFGRPYEGIAVFDGKKITVTGTLWNGNKIIDERLITPD
Activation by separate β9 and β10 peptides [1]: activated by the addition of SmTrip10 pep86 and SmTrip9 pep245 | Activity after prolonged (26 hour) exposure to urea ([2]; 26 hours incubation in urea titration): regain activity upon prolonged treatment with urea | Activity in the presence of urea (susceptibility to inactivation) ([2]; urea titration from 10M, with pep263 for LgBiT and LgTrip): least effected by urea | Gain in signal in the presence of complementary peptide (SmTrip10 pep86 / pep263): greater

B2: LgTrip: β1-8-like polypeptide corresponding to SEQ ID NO: 17; variants LgTrip 2098 and LgTrip 3546 (protein)
chain: MVFTLEDFVGDWEQTAAYNLDQVLEQGGVSSLLQNLAVSVTPIQRIVRSGENALKIDIHVIIPYEGLSADQMAQIEEVFKVVYPVDDHHFKVILPYGTLVIDGVTPNMLNYFGRPYEGIAVFDGKKITVTGTLWNGNKIIDERLITPD
Effect of pH on activity (Effect of pH on activity): resistant to a wide pH range
